Measured values as given in US20110229941.

Biological target: T1, crotonyl-S-SfaO (N-terminal 6x His-tagged free acyl carrier protein SfaO carrying a crotonyl thioester)
T1 chain: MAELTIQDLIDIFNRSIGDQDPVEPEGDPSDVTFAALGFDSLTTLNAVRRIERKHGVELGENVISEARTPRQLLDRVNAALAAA

B1: N-terminal 6x His-tagged SfaR (crotonyl-CoA reductase) (protein)
chain: VNEILSAVLSAEATAADFAALPLPESYRAITVHKDETEMFTGVGPADKDPRKSLHLDEVPVPELGPGEALVAVMASSVNYNSVWSSIFEPLPTFAFLERYGRRGELAKRHDLPYHVIGSDLAGVVLRTGPGVQAWKPGDEVVAHCLSVELESSDGHDDTMMDPEQRIWGFETNFGGLAELALVKSNQLMPKPRHLTWEEAAAPGLVNSTAYRQLVSRNGAQMKQGDNVLIWGASGGLGSYATQLALAGGANPVCVVSTPQKAAICRSMGAEAVIDRDAEDYRFWRDGNTQDPREWKRFGKRIRELTGGEDVDIVFEHPGRETFGASVFVARKGGTIVTCASTSGYEHQYDNRYLWMSLKRIIGSHFANYREAWEANRLVAKGRIHPTLSKVYPLEETGQAAFDVYGNVHHGKVGVLGLAPTEGLGVRDEEMRARHVGAINRFRPSAEPQTEPV
For B1, the “activity of SfaR (reduction / reductive carboxylation) with crotonyl-S-SfaO as the substrate” value was “failed to detect any activity of SfaR”.
